Eight molecules from patent US20200317768A1 (published 2020) can be followed below.

The target in assay [1] is T1, Human latent myostatin (human, UniProt O14793 25-266; O14793 267-375).
T1 construct: also called human myostatin latent form
T1 sequence 1: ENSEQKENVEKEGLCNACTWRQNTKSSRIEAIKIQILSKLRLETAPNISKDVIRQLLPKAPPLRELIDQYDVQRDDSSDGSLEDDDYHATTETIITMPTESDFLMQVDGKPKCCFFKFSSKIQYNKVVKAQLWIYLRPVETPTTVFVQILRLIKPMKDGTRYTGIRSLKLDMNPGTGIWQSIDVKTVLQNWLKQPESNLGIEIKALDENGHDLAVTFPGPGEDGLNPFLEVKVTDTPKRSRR
T1 sequence 2: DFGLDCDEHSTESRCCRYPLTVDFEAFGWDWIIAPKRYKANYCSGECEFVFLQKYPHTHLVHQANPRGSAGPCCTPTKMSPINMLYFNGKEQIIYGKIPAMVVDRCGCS
In words: SPR 37C; KD pH 5.8 / KD pH 7.4.

For assay [2], the target named is T2, Cynomolgus monkey latent myostatin (cynomolgus monkey, UniProt Q95J86 25-266; Q95J86 267-375).
T2 construct: Latent form = complex of two propeptides and the mature dimer; also called Cyno latent myostatin
T2 sequence 1: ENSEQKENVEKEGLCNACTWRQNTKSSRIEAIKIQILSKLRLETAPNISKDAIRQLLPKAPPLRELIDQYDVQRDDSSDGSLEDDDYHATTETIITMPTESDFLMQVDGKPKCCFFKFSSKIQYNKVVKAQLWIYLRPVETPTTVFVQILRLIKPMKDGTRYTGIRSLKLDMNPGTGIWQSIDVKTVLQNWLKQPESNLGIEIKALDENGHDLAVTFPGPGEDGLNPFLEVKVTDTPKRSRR
T2 sequence 2: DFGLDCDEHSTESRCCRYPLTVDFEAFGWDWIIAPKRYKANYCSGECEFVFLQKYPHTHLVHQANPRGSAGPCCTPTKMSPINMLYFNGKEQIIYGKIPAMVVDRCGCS
As to the kind of experiment: SPR 37C; KD pH 5.8 / KD pH 7.4.

Assay [3] has as its target T3, Mouse latent myostatin (mouse, UniProt O08689 26-267; O08689 268-376).
T3 construct: Latent form = complex of two propeptides and the mature dimer
T3 sequence 1: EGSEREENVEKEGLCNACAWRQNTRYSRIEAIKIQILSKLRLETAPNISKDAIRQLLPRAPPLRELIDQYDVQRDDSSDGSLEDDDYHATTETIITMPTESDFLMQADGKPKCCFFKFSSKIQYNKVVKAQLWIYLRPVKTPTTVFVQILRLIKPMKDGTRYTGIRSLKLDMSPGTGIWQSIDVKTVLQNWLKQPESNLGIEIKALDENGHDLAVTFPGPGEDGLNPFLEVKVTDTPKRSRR
T3 sequence 2: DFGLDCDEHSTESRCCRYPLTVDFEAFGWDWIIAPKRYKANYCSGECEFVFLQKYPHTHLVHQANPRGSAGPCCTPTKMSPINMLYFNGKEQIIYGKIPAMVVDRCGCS
As to the kind of experiment: SPR 37C; KD pH 5.8 / KD pH 7.4.

In assay [4] the target is T1, Human latent myostatin. As to the kind of experiment: SPR (BIACORE T200) 37C, pH 5.8, antibody captured by ProA/G.
For assay [5], the target named is T2, Cynomolgus monkey latent myostatin. Described as above.
Assay [6] deals with T3, Mouse latent myostatin. The description is as above.
Assay [7] concerns the target T1, Human latent myostatin. As to the kind of experiment: SPR (BIACORE T200) 37C, pH 7.4, antibody captured by ProA/G.
For assay [8], the target named is T2, Cynomolgus monkey latent myostatin. Described as above.
The target in assay [9] is T3, Mouse latent myostatin. The assay is described as above.
For assay [10], the target named is T4, Human latent myostatin (human, UniProt O14793 25-266; O14793 267-375).
T4 construct: Biotinylated in the ELISAs; also called human myostatin latent form
T4 sequence 1: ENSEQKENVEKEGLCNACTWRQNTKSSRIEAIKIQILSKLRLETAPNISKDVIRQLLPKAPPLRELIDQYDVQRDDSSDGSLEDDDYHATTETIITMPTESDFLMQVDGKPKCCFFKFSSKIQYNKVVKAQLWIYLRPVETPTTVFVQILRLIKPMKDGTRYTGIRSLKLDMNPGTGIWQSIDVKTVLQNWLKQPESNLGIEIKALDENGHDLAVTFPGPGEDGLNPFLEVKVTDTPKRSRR
T4 sequence 2: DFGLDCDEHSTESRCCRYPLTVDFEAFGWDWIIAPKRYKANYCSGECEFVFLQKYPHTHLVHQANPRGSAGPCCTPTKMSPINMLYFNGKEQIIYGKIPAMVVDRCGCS
As to the kind of experiment: SPR (BIACORE), additional dissociation phase at pH5.8 after dissociation at pH7.4, Scrubber 2.0 fit. The method, then:
Each amino acid in the CDRs was individually mutated to histidine using In-Fusion HD Cloning Kit (Clontech Inc, or Takara Bio company) according to the manufacturer's instructions. […] All histidine-substituted variants were evaluated by a modified BIACORE® assay as compared to that described above. Briefly, an additional dissociation phase at pH5.8 was integrated into the BIACORE® assay immediately after the dissociation phase at pH7.4. This is to assess the pH-dependent dissociation between antibody (Ab) and antigen (Ag) from the complexes formed at pH7.4 as opposed to the corresponding dissociation at pH5.8. The dissociation rate at pH5.8 buffer was determined by processing and fitting data using the Scrubber 2.0 (BioLogic Software) curve fitting software.
Antibodies with a combination of these mutations in the CDRs were then generated.

B1: MS_M103240H795-SG1/M103202L1045-SK1 (antibody, human IgG1, kappa)
heavy: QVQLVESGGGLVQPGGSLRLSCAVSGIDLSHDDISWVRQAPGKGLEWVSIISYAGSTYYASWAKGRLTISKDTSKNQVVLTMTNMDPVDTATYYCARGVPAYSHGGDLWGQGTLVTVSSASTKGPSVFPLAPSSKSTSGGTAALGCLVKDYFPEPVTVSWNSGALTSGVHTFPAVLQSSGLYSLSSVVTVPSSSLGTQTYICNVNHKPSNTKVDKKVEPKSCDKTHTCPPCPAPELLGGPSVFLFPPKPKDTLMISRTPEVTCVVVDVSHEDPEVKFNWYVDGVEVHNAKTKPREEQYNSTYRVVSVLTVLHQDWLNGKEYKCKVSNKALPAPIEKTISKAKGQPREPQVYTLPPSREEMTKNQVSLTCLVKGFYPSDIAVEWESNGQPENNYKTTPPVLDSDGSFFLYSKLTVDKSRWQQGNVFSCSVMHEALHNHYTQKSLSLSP
light: DIVMTQSPATLSLSPGERATLSCTTSQSVYHENWLSWFQQKPGQPPKLLIYWASTLAYGVPSRFSGSGSGTDFTLTISSLQPEDAATYYCAGGYGGGRYAFGQGTKVEIKRTVAAPSVFIFPPSDEQLKSGTASVVCLLNNFYPREAKVQWKVDNALQSGNSQESVTEQDSKDSTYSLSSTLTLSKADYEKHKVYACEVTHQGLSSPVTKSFNRGEC
notes: also called MS1032LO19-SG1
Turning to B1, the results for the “ratio of KD at pH 5.8/pH 7.4” value in [1], in assay [2] and in assay [3] were 168, 109 and 106, respectively. In addition, the dissociation constant Kd in [4] worked out at 45.8 nM; in assay [5], 35.6 nM; in [6], 28.7 nM; in [7] it was 0.273 nM; in assay [8] it was 0.326 nM; in [9] it was 0.271 nM.

B2: Ab003 (M103205H009 / M103202L000) (antibody, human IgG1, kappa, V domains shown)
VH: QVTLKESGPVLVKPTETLTLTCTVSGIDLSSYDISWVRQAPGKGLEWVGIISHAGSTYYASWAKGRLTISKDTSKNQVVLTMTNMDPVDTATYYCARGVPAYSTGGDLWGQGTLVTVSS
VL: DIVMTQSPATLSLSPGERATLSCQSSQSVYDNNWLSWFQQKPGQPPKLLIYWASTLASGVPSRFSGSGSGTDFTLTISSLQPEDAATYYCAGGYGGGLYAFGQGTKVEIKR
notes: Histidine-substituted variant of MS1032LO00-SG1
As for B2, the koff in assay [10] is 0.00088 s⁻¹.

B3: MS_M103240H1246-SG1/M103202L1045-SK1 (antibody, human IgG1, kappa, V domains shown)
VH: QVQLVESGGGLVQPGGSLRLSCAVSGIDLSHEDISWVRQAPGKGLEWVSIISYAGSKYYASWAKGRLTISKDTSKNQVVLTMTNMDPVDTATYYCARGVPAYSHGGDLWGQGTLVTVSS
VL: DIVMTQSPATLSLSPGERATLSCTTSQSVYHENWLSWFQQKPGQPPKLLIYWASTLAYGVPSRFSGSGSGTDFTLTISSLQPEDAATYYCAGGYGGGRYAFGQGTKVEIKR
notes: also called MS1032LO25-SG1
As to B3, the “ratio of KD at pH 5.8/pH 7.4” value in [1] was 92; in assay [2], 41; in assay [3] it was 38. The dissociation constant Kd in assay [4] came out at 25.5 nM; in [5], 14.1 nM; in assay [6], 9.88 nM; in assay [7], 0.276 nM; in assay [8], 0.34 nM; in [9], 0.259 nM.

B4: Ab004 (M103205H026 / M103202L000) (antibody, human IgG1, kappa, V domains shown)
VH: QVTLKESGPVLVKPTETLTLTCTVSGIDLSSYDISWVRQAPGKGLEWVGIISYAGSTYYASWAKGRLTISKDTSKNQVVLTMTNMDPVDTATYYCARGVPAHSTGGDLWGQGTLVTVSS
VL: DIVMTQSPATLSLSPGERATLSCQSSQSVYDNNWLSWFQQKPGQPPKLLIYWASTLASGVPSRFSGSGSGTDFTLTISSLQPEDAATYYCAGGYGGGLYAFGQGTKVEIKR
notes: as for B2
With B4, in [10], the off-rate constant (koff) amounted to 0.000186 s⁻¹.

B5: Ab006 (M103205H000 / M103202L008) (antibody, human IgG1, kappa, V domains shown)
VH: QVTLKESGPVLVKPTETLTLTCTVSGIDLSSYDISWVRQAPGKGLEWVGIISYAGSTYYASWAKGRLTISKDTSKNQVVLTMTNMDPVDTATYYCARGVPAYSTGGDLWGQGTLVTVSS
VL: DIVMTQSPATLSLSPGERATLSCQSSQSVYHNNWLSWFQQKPGQPPKLLIYWASTLASGVPSRFSGSGSGTDFTLTISSLQPEDAATYYCAGGYGGGLYAFGQGTKVEIKR
notes: as for B2
As to B5, in assay [10], the off-rate (koff) was 8.58e-05 s⁻¹.

B6: Ab007 (M103205H028 / M103202L008) (antibody, human IgG1, kappa, V domains shown)
VH: QVTLKESGPVLVKPTETLTLTCTVSGIDLSSYDISWVRQAPGKGLEWVGIISYAGSTYYASWAKGRLTISKDTSKNQVVLTMTNMDPVDTATYYCARGVPAYSHGGDLWGQGTLVTVSS
VL: DIVMTQSPATLSLSPGERATLSCQSSQSVYHNNWLSWFQQKPGQPPKLLIYWASTLASGVPSRFSGSGSGTDFTLTISSLQPEDAATYYCAGGYGGGLYAFGQGTKVEIKR
notes: as for B2
B6: the koff in [10] stood at 0.000415 s⁻¹.

B7: MS_M103245H1233-SG1/M103202L1045-SK1 (antibody, human IgG1, kappa, V domains shown)
VH: QVTLKESGPVLVKPTETLTLTCKVSGIDLSHEDISWVRQAPGKGLEWVSIISYAGSTYYASWAKGRLTISKDTSKNQVVLTMTNMDPVDTATYYCARGVPAYSHGGDLWGQGTLVTVSS
VL: DIVMTQSPATLSLSPGERATLSCTTSQSVYHENWLSWFQQKPGQPPKLLIYWASTLAYGVPSRFSGSGSGTDFTLTISSLQPEDAATYYCAGGYGGGRYAFGQGTKVEIKR
notes: also called MS1032LO23-SG1
As for B7, the results for the “ratio of KD at pH 5.8/pH 7.4” value in assay [1], in [2] and in assay [3] were 62, 26 and 24, respectively. For the same molecule, the equilibrium dissociation constant (Kd) stood at 16.1 nM in assay [4]; 7.71 nM in assay [5]; 6.4 nM in [6]; 0.26 nM in assay [7]; 0.299 nM in [8]; 0.266 nM in assay [9].

B8: Ab005 (M103205H028 / M103202L000) (antibody, human IgG1, kappa, V domains shown)
VH: QVTLKESGPVLVKPTETLTLTCTVSGIDLSSYDISWVRQAPGKGLEWVGIISYAGSTYYASWAKGRLTISKDTSKNQVVLTMTNMDPVDTATYYCARGVPAYSHGGDLWGQGTLVTVSS
VL: DIVMTQSPATLSLSPGERATLSCQSSQSVYDNNWLSWFQQKPGQPPKLLIYWASTLASGVPSRFSGSGSGTDFTLTISSLQPEDAATYYCAGGYGGGLYAFGQGTKVEIKR
notes: as for B2
For the molecule B8, in assay [10], the off-rate (koff) worked out at 7.63e-05 s⁻¹.
